Assay results from patent US20240108766A1 (Bayer, published 2024).

T1: human LRRC15 expressed on cells (human, UniProt Q8TF66 22-581)
T1 construct: whole, on cells; On HEK293 cells transfected with LRRC15/ZsGreen1 (Retrogenix), on HT29 cells transfected with human LRRC15, and endogenous on Saos-2; also called LRRC15/ZsGreen1 transfected HEK293 cells; HT29-LRRC15
T1 sequence (looked up): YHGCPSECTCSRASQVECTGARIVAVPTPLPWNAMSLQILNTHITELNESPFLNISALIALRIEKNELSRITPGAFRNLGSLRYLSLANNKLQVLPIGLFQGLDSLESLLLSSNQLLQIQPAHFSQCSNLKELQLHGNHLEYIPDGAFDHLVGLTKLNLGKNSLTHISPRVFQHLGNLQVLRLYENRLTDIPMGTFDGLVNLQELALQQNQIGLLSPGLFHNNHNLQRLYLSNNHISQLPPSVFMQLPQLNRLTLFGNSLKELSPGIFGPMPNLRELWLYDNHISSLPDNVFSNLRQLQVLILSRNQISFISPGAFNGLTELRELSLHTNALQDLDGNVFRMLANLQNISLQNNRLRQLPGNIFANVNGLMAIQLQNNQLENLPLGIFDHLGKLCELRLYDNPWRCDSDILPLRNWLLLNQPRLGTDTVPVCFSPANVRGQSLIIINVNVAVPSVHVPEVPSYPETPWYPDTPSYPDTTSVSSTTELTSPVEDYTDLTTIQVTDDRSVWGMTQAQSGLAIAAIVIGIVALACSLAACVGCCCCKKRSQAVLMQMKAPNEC

T2: Ephrin type-B receptor 6 (EPHB6) on transfected HEK293 cells (human, UniProt O15197 32-1021)
T2 construct: whole, on cells; also called EPHB6/ZsGreen1
T2 sequence (looked up): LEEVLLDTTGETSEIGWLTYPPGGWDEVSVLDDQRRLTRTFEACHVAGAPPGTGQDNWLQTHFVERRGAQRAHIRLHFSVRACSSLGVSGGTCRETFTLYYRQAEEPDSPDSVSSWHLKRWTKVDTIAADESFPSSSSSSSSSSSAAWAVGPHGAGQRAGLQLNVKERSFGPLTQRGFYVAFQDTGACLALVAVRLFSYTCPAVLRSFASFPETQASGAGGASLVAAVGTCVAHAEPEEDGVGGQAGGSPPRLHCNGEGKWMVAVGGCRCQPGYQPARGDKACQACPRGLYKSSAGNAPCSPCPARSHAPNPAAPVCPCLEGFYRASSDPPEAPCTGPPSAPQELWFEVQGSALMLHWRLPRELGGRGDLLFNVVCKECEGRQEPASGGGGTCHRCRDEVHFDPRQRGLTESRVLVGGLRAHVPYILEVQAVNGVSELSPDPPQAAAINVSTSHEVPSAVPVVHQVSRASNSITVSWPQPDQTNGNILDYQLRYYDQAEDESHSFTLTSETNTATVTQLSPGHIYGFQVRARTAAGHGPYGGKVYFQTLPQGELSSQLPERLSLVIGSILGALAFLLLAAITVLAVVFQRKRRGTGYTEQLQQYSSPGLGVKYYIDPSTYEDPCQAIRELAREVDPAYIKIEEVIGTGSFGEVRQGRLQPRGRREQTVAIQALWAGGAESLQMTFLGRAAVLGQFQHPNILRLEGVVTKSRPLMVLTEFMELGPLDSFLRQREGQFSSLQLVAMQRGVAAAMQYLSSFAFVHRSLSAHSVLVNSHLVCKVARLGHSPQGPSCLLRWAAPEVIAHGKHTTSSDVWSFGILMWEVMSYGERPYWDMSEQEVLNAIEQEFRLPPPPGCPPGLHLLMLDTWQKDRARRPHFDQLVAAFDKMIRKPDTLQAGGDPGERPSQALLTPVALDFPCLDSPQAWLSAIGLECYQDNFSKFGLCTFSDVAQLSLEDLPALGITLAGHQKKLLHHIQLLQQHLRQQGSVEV


Assays:
[1] = target: T1, human LRRC15 expressed on cells; test: flow cytometry, transfected HEK293
[2] = target: T3, Cathepsin S (CTSS) on transfected HEK293 cells (human, UniProt P25774 115-331); test: flow cytometry, live transfected HEK293 cells
T3 construct: whole, on cells; also called CTSS/ZsGreen1
T3 sequence (P25774 115-331): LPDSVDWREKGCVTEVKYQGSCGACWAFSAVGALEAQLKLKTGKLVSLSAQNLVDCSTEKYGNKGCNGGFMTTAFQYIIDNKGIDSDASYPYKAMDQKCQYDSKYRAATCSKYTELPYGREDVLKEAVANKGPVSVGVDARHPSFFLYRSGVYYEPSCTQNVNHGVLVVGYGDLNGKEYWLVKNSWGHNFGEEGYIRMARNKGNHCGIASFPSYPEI

[3] = target: T1, human LRRC15 expressed on cells; test: flow cytometry, transfected HEK293; TPP-12942, first of the three values listed 'respectively'
[4] = target: T1, human LRRC15 expressed on cells; test: flow cytometry, transfected HEK293; remark: listed apart in the source
[5] = target: T2, Ephrin type-B receptor 6 (EPHB6) on …; test: flow cytometry, live transfected HEK293 cells
[6] = target: T2, Ephrin type-B receptor 6 (EPHB6) on …; test: flow cytometry, transfected HEK293, 2.5 µg/ml
[7] = target: T2, Ephrin type-B receptor 6 (EPHB6) on …; test: flow cytometry, transfected HEK293, 0.004 µg/ml
[8] = target: T2, Ephrin type-B receptor 6 (EPHB6) on …; test: flow cytometry, transfected HEK293, 0.02 µg/ml
[9] = target: T2, Ephrin type-B receptor 6 (EPHB6) on …; test: flow cytometry, transfected HEK293, 12.5 µg/ml
[10] = target: T2, Ephrin type-B receptor 6 (EPHB6) on …; test: flow cytometry, transfected HEK293, 0.5 µg/ml
[11] = target: T2, Ephrin type-B receptor 6 (EPHB6) on …; test: flow cytometry, transfected HEK293, 0 µg/ml
[12] = target: T2, Ephrin type-B receptor 6 (EPHB6) on …; test: flow cytometry, transfected HEK293, 0.1 µg/ml
[13] = target: T2, Ephrin type-B receptor 6 (EPHB6) on …; test: flow cytometry, transfected HEK293, 62.5 µg/ml
[14] = target: T1, human LRRC15 expressed on cells; test: flow cytometry, transfected HEK293; TPP-17078, second of the three values listed 'respectively'

| EC50 [1] [µg/mL] | binding result [2] | EC50 [3] [µg/mL] | EC50 [4] [µg/mL] | binding result [5] | Median Fluorescence AF647 [6] | Median Fluorescence AF647 [7] | Median Fluorescence AF647 [8] | Median Fluorescence AF647 [9] | Median Fluorescence AF647 [10] | Median Fluorescence AF647 [11] | Median Fluorescence AF647 [12] | Median Fluorescence AF647 [13] | EC50 [14] [µg/mL] | Binder |
| --- | --- | --- | --- | --- | --- | --- | --- | --- | --- | --- | --- | --- | --- | --- |
| 0.26 | no binding (tested: up to 62.5 µg/ml) |  |  |  |  |  |  |  |  |  |  |  |  | TPP-14389 (antibody, human IgG1, kappa, V domains shown, also called 13612-rec02-hIgG1Kappa) VH: EVQLLESGGGLVQPGGSLRLSCAASGFTFSGYMMSWVRQAPGKGLEWVSGIYPSPGYTYYADSVKGRFTISRDNSKNTLYLQMNSLRAEDTAVYYCAREKASDLFGSYSEALDYWGQGTLVTVSS VL: DIQMTQSPDSLSASVGDRVTITCRASQDVGSWLAWYQQKPGKAPKLLIFAASSLESGIPSRFSGSGSGTDFTLTISSLQPEDFATYYCQQANGFPLTFGGGTKVEIKR |
|  |  | 0.2 | 1.4 |  |  |  |  |  |  |  |  |  |  | TPP-12942 (antibody, human IgG1, kappa, V domains shown, Prior art humanized IgG1 kappa antibody, used as comparator; also called huM25; huM25-hIgG1Kappa) VH: EVQLVQSGAEVKKPGASVKVSCKASGYKFSSYWIEWVKQAPGQGLEWIGEILPGSDTTNYNEKFKDRATFTSDTSINTAYMELSRLRSDDTAVYYCARDRGNYRAWFGYWGQGTLVTVSS VL: DIQMTQSPSSLSASVGDRVTITCRASQDISNYLNWYQQKPGGAVKFLIYYTSRLHSGVPSRFSGSGSGTDYTLTISSLQPEDFATYFCQQGEALPWTFGGGTKVEIKR |
|  |  |  |  | no binding (tested: up to 62.5 µg/ml) | 4150 | 1250 | 1770 | 5390 | 3150 | 628 | 2810 | 9050 |  | TPP-17421 (antibody, human IgG1, kappa, V domains shown, also called 438H-M306-C11-hIgG1Kappa) VH: EVQLVQSGAEVKKPGASVKVSCKASGYKFSSYWIEWVKQAPGQGLEWIGEILPGSDWTNYNEKFKDRATFTSDTSINTAYMELSRLRSDDTAVYYCARDRGNYRAWFQYWGQGTLVTVSS VL: DIQMTQSPSSLSASVGDRVTITCRASQSISSYLNWYQQKPGGAPKFLIYYASSLQSGVPSRFSGSGSGTDYTLTISSLQPEDFATYYCQQGLELPWTFGGGTKVEIKR |
|  |  |  |  |  | 5480 | 1780 | 2540 | 7970 | 3680 | 633 | 3190 | 14600 | 0.15 | TPP-17078 (antibody, human IgG1, kappa, V domains shown, also called 438H-M308-H05-hIgGkappa) VH: EVQLVQSGAEVKKPGASVKVSCKASGYKFSSYWIEWVKQAPGQGLEWIGEILPGSDTTNYNEKFKDRATFTSDTSINTAYMELSRLRSDDTAVYYCARDRGNYRAWFGYWGQGTLVTVSS VL: DIQMTQSPSSLSASVGDRVTITCRASQSISSYLNWYQQKPGGAPKFLIYYASSLQSGVPSRFSGSGSGTDYTLTISSLQPEDFATYYCQQGFSLPWTFGGGTKVEIKR |
